This passage reports Kd results from the FLAb antibody collection (doi:10.1101/2023.12.08.570889).

The chains are these.
B1: unnamed (protein)
chain 1: QMQLVESGGGVVQPGRSLRLSCAASGFTFRTYGMHWVRQAPGKGLEWVAVIWYDGSNKHYADSVKGRFTITRDNSKNTLNLQMNSLRAEDTAVYYCARSPRYDYYYEAFDVWGQGTMVTVSS
chain 2: SYVLTQPPSVSVAPGQTARITCGGNNLGSKSVHWYQQKPGQAPVLVVYDDSDRPSWIPERFSGSNSGNTATLTISRGEAGDEADYYCQVWDSSSDHVVFGGGTKLTVL
B2: unnamed (protein)
chain 1: QMQLVESGGGVVQPGRSLRLSCAASGFTFRTYGMHWVRQAPGKGLEWVAVIWYDGSNKHYADSVKGRFTITRDNSKNTLNLQMNSLRAEDTAVYYCARSPRYDWYYEAFDVWGQGTMVTVSS
chain 2: SYVLTQPPSVSVAPGQTARITCGGNNLGSKSVHWYQQKPGQAPVLVVYDDSDRPSWIPERFSGSNSGNTATLTISRGEAGDEADYYCQVWDSSSDHVVFGGGTKLTVL
B3: unnamed (protein)
chain 1: QMQLVESGGGVVQPGRSLRLSCAASGFTFRTYGMHWVRQAPGKGLEWVAVIWYDGSNKHYADSVKGRFTITRDNSKNTLNLQMNSLRAEDTAVYYCARAPRYDDYLEAFDVWGQGTMVTVSS
chain 2: SYVLTQPPSVSVAPGQTARITCGGNNLGSKSVHWYQQKPGQAPVLVVYDDSDRPSWIPERFSGSNSGNTATLTISRGEAGDEADYYCQVWDSSSDHVVFGGGTKLTVL
B4: unnamed (protein)
chain 1: QMQLVESGGGVVQPGRSLRLSCAASGFTFRTYGMHWVRQAPGKGLEWVAVIWYDGSNKHYADSVKGRFTITRDNSKNTLNLQMNSLRAEDTAVYYCARAPRYYEYWEAFDVWGQGTMVTVSS
chain 2: SYVLTQPPSVSVAPGQTARITCGGNNLGSKSVHWYQQKPGQAPVLVVYDDSDRPSWIPERFSGSNSGNTATLTISRGEAGDEADYYCQVWDSSSDHVVFGGGTKLTVL
B5: unnamed (protein)
chain 1: QMQLVESGGGVVQPGRSLRLSCAASGFTFRTYGMHWVRQAPGKGLEWVAVIWYDGSNKHYADSVKGRFTITRDNSKNTLNLQMNSLRAEDTAVYYCARAPRYDERWEAFDVWGQGTMVTVSS
chain 2: SYVLTQPPSVSVAPGQTARITCGGNNLGSKSVHWYQQKPGQAPVLVVYDDSDRPSWIPERFSGSNSGNTATLTISRGEAGDEADYYCQVWDSSSDHVVFGGGTKLTVL
B6: unnamed (protein)
chain 1: QMQLVESGGGVVQPGRSLRLSCAASGFTFRTYGMHWVRQAPGKGLEWVAVIWYDGSNKHYADSVKGRFTITRDNSKNTLNLQMNSLRAEDTAVYYCARAPRYDWTYEAFDVWGQGTMVTVSS
chain 2: SYVLTQPPSVSVAPGQTARITCGGNNLGSKSVHWYQQKPGQAPVLVVYDDSDRPSWIPERFSGSNSGNTATLTISRGEAGDEADYYCQVWDSSSDHVVFGGGTKLTVL
B7: unnamed (protein)
chain 1: QMQLVESGGGVVQPGRSLRLSCAASGFTFRTYGMHWVRQAPGKGLEWVAVIWYDGSNKHYADSVKGRFTITRDNSKNTLNLQMNSLRAEDTAVYYCARAPRYDDDWEAFDVWGQGTMVTVSS
chain 2: SYVLTQPPSVSVAPGQTARITCGGNNLGSKSVHWYQQKPGQAPVLVVYDDSDRPSWIPERFSGSNSGNTATLTISRGEAGDEADYYCQVWDSSSDHVVFGGGTKLTVL
B8: unnamed (protein)
chain 1: QMQLVESGGGVVQPGRSLRLSCAASGFTFRTYGMHWVRQAPGKGLEWVAVIWYDGSNKHYADSVKGRFTITRDNSKNTLNLQMNSLRAEDTAVYYCARAPRYDYEYEAFDVWGQGTMVTVSS
chain 2: SYVLTQPPSVSVAPGQTARITCGGNNLGSKSVHWYQQKPGQAPVLVVYDDSDRPSWIPERFSGSNSGNTATLTISRGEAGDEADYYCQVWDSSSDHVVFGGGTKLTVL
B9: unnamed (protein)
chain 1: QMQLVESGGGVVQPGRSLRLSCAASGFTFRTYGMHWVRQAPGKGLEWVAVIWYDGSNKHYADSVKGRFTITRDNSKNTLNLQMNSLRAEDTAVYYCARAPRYDFYYEAFDVWGQGTMVTVSS
chain 2: SYVLTQPPSVSVAPGQTARITCGGNNLGSKSVHWYQQKPGQAPVLVVYDDSDRPSWIPERFSGSNSGNTATLTISRGEAGDEADYYCQVWDSSSDHVVFGGGTKLTVL
B10: unnamed (protein)
chain 1: QMQLVESGGGVVQPGRSLRLSCAASGFTFRTYGMHWVRQAPGKGLEWVAVIWYDGSNKHYADSVKGRFTITRDNSKNTLNLQMNSLRAEDTAVYYCARAPRYDEHYEAFDVWGQGTMVTVSS
chain 2: SYVLTQPPSVSVAPGQTARITCGGNNLGSKSVHWYQQKPGQAPVLVVYDDSDRPSWIPERFSGSNSGNTATLTISRGEAGDEADYYCQVWDSSSDHVVFGGGTKLTVL
B11: unnamed (protein)
chain 1: QMQLVESGGGVVQPGRSLRLSCAASGFTFRTYGMHWVRQAPGKGLEWVAVIWYDGSNKHYADSVKGRFTITRDNSKNTLNLQMNSLRAEDTAVYYCARSPRYDEYWEAFDVWGQGTMVTVSS
chain 2: SYVLTQPPSVSVAPGQTARITCGGNNLGSKSVHWYQQKPGQAPVLVVYDDSDRPSWIPERFSGSNSGNTATLTISRGEAGDEADYYCQVWDSSSDHVVFGGGTKLTVL
B12: unnamed (protein)
chain 1: QMQLVESGGGVVQPGRSLRLSCAASGFTFRTYGMHWVRQAPGKGLEWVAVIWYDGSNKHYADSVKGRFTITRDNSKNTLNLQMNSLRAEDTAVYYCARAPRYYDYLEAFDVWGQGTMVTVSS
chain 2: SYVLTQPPSVSVAPGQTARITCGGNNLGSKSVHWYQQKPGQAPVLVVYDDSDRPSWIPERFSGSNSGNTATLTISRGEAGDEADYYCQVWDSSSDHVVFGGGTKLTVL
B13: unnamed (protein)
chain 1: QMQLVESGGGVVQPGRSLRLSCAASGFTFRTYGMHWVRQAPGKGLEWVAVIWYDGSNKHYADSVKGRFTITRDNSKNTLNLQMNSLRAEDTAVYYCARAPRYYEAYEAFDVWGQGTMVTVSS
chain 2: SYVLTQPPSVSVAPGQTARITCGGNNLGSKSVHWYQQKPGQAPVLVVYDDSDRPSWIPERFSGSNSGNTATLTISRGEAGDEADYYCQVWDSSSDHVVFGGGTKLTVL
B14: unnamed (protein)
chain 1: QMQLVESGGGVVQPGRSLRLSCAASGFTFRTYGMHWVRQAPGKGLEWVAVIWYDGSNKHYADSVKGRFTITRDNSKNTLNLQMNSLRAEDTAVYYCARAPRYDWAYEAFDVWGQGTMVTVSS
chain 2: SYVLTQPPSVSVAPGQTARITCGGNNLGSKSVHWYQQKPGQAPVLVVYDDSDRPSWIPERFSGSNSGNTATLTISRGEAGDEADYYCQVWDSSSDHVVFGGGTKLTVL
B15: unnamed (protein)
chain 1: QMQLVESGGGVVQPGRSLRLSCAASGFTFRTYGMHWVRQAPGKGLEWVAVIWYDGSNKHYADSVKGRFTITRDNSKNTLNLQMNSLRAEDTAVYYCARAPRYDEYWEAFDVWGQGTMVTVSS
chain 2: SYVLTQPPSVSVAPGQTARITCGGNNLGSKSVHWYQQKPGQAPVLVVYDDSDRPSWIPERFSGSNSGNTATLTISRGEAGDEADYYCQVWDSSSDHVVFGGGTKLTVL
B16: unnamed (protein)
chain 1: QMQLVESGGGVVQPGRSLRLSCAASGFTFRTYGMHWVRQAPGKGLEWVAVIWYDGSNKHYADSVKGRFTITRDNSKNTLNLQMNSLRAEDTAVYYCARAPRYDDAYEAFDVWGQGTMVTVSS
chain 2: SYVLTQPPSVSVAPGQTARITCGGNNLGSKSVHWYQQKPGQAPVLVVYDDSDRPSWIPERFSGSNSGNTATLTISRGEAGDEADYYCQVWDSSSDHVVFGGGTKLTVL
B17: unnamed (protein)
chain 1: QMQLVESGGGVVQPGRSLRLSCAASGFTFRTYGMHWVRQAPGKGLEWVAVIWYDGSNKHYADSVKGRFTITRDNSKNTLNLQMNSLRAEDTAVYYCARAPRYYWYWEAFDVWGQGTMVTVSS
chain 2: SYVLTQPPSVSVAPGQTARITCGGNNLGSKSVHWYQQKPGQAPVLVVYDDSDRPSWIPERFSGSNSGNTATLTISRGEAGDEADYYCQVWDSSSDHVVFGGGTKLTVL
B18: unnamed (protein)
chain 1: QMQLVESGGGVVQPGRSLRLSCAASGFTFRTYGMHWVRQAPGKGLEWVAVIWYDGSNKHYADSVKGRFTITRDNSKNTLNLQMNSLRAEDTAVYYCARAPRYDYYYEAFDVWGQGTMVTVSS
chain 2: SYVLTQPPSVSVAPGQTARITCGGNNLGSKSVHWYQQKPGQAPVLVVYDDSDRPSWIPERFSGSNSGNTATLTISRGEAGDEADYYCQVWDSSSDHVVFGGGTKLTVL
B19: unnamed (protein)
chain 1: QMQLVESGGGVVQPGRSLRLSCAASGFTFRTYGMHWVRQAPGKGLEWVAVIWYDGSNKHYADSVKGRFTITRDNSKNTLNLQMNSLRAEDTAVYYCARAPRYDEYYDAFDVWGQGTMVTVSS
chain 2: SYVLTQPPSVSVAPGQTARITCGGNNLGSKSVHWYQQKPGQAPVLVVYDDSDRPSWIPERFSGSNSGNTATLTISRGEAGDEADYYCQVWDSSSDHVVFGGGTKLTVL

The assay concerns the target TSLP, Q969D9. As to the kind of experiment: Kd (SPR).
What is called Kd is a measure of binding affinity in units of concentration. As to B1, the Kd worked out at 337 nM.

In turn, B2 gave a Kd of 122 nM.

As for B3, the equilibrium dissociation constant (Kd) came to 99.9 nM.

In turn, B4 gave a Kd of 29.2 nM. This Kd lies about 3.4-fold lower than the previous one.

Molecule B5 registered a dissociation constant Kd of 494 nM.

In turn, B6 yielded a Kd of 128 nM.

B7 yielded a Kd of 82.7 nM.

B8: the Kd is 104 nM.

In turn, B9 yielded a Kd of 116 nM.

B10 gave a Kd of 168 nM.

Molecule B11 returned a Kd of 369 nM.

B12 came in with a dissociation constant (Kd) of 22.6 nM.

B13 had a Kd of 31 nM.

As for B14, the Kd came to 404 nM.

In turn, B15 yielded a Kd of 84.9 nM. Compared with the last molecule, the Kd is about 4.8-fold lower.

In turn, B16 had a Kd of 99.6 nM.

For B17, the dissociation constant (Kd) is 23.6 nM.

Molecule B18 had an equilibrium dissociation constant (Kd) of 138 nM.

In turn, B19 showed a Kd of 293 nM.
